The target in test [1] is ZZ domain of HERC2 (HERC2ZZ, aa 2702–2755 with additional tryptophan at the C-terminus) (human) (UniProt O95714). In words: other fluorescence titration; tryptophan fluorescence; 1 μM HERC2ZZ with 1 μM HERC2DOC present, increasing REEE peptide; 25 °C; 20 mM Tris (pH 6.8), 150 mM NaCl, 2 mM DTT.
For test [2] the target is unchanged. Description: other fluorescence titration; tryptophan fluorescence; 1 μM HERC2ZZ with increasing REEE peptide; 25 °C; 20 mM Tris (pH 6.8), 150 mM NaCl, 2 mM DTT; excitation 295 nm.

Results on 1 substance are retold here after publication PMC9001736.

Sequence of ZZ domain of HERC2 (HERC2ZZ, aa 2702–2755 with additional tryptophan at the C-terminus) (human) (O95714 other isoform, or with tags, fused parts or gaps): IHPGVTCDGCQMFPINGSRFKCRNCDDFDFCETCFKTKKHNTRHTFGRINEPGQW

“REEE peptide (mimetic of the Nt-R cargo degradation signal)”: the Kd (as a rule, a measure of binding affinity in units of concentration) in test [1] was 1000 nM; in test [2], 1200 nM.
